Experimental data: article PMC5324674, “NBP35 interacts with DRE2 in the maturation of cytosolic iron‐sulphur proteins in Arabidopsis thaliana” (The Plant Journal, 2017)

Molecular target: T1, Purified NBP35 (His‐tagged, from E. coli) (Arabidopsis thaliana, UniProt Q8H1Q2 1-350)
T1 construct: The SPR methods say only 'purified NBP35'; also called wild‐type NBP35; source: E. coli, purified (His-Trap HP column, desalted on PD10)
T1 sequence (looked up): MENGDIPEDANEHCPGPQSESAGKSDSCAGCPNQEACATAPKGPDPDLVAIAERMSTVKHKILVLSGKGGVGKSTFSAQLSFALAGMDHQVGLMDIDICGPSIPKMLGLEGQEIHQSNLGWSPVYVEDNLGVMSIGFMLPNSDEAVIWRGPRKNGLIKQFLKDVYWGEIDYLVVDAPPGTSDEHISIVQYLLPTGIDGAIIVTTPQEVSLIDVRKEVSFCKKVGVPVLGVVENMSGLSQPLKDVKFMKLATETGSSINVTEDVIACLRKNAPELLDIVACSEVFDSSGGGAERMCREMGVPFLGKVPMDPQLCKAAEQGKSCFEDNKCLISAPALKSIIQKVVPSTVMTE
Test: SPR; Biacore T200, Streptavidin chip; Strep-tagged DRE2 captured from E. coli cell extract (about 1700 RU); purified NBP35 0-45 uM injected, multi-cycle; 25°C; 20 mM Tris-HCl pH 8, 0.15 M NaCl, 5% glycerol; equilibrium response, Affinity Fit, 1:1 model
Conditions: one partner purified

B1: Strep‐tagged DRE2 (natural protein)
chain: not shown
notes: DRE2/CIAPIN1, Arabidopsis thaliana, AT5G18400; printed also as 'DRE2-Strep'; also called DRE2‐Strep; source: E. coli cell extract, captured on a Streptavidin sensor chip
Binder B1 has a Kd of 3.3 ± 0.9 µM.
